How the values were obtained:
[1] = target: chloroplastic glutamine synthetase GS2 of wheat (Triticum aestivum (endogenous in wheat seedlings)); experiment: native gel or EMSA; modified blue native electrophoresis (BNE), 4-13% polyacrylamide gradient gel, 4 °C; 1 h with cathode buffer with 0.02% Coomassie G250, then buffer without dye; ~100 ug soluble proteins from wheat seedling chloroplasts, leaves and roots; GS bands detected by in-gel transferase activity; mass calibrated against high-molecular-weight markers
[2] = target: cytosolic glutamine synthetase GS1 holoenzyme of wheat (39 kDa subunit) (Triticum aestivum (endogenous in wheat seedlings)) (UniProt Q45NB7); experiment: as above
[3] = target: maize glutamine synthetase (maize (endogenous in maize leaf and roots)); experiment: native gel or EMSA; maize leaf and root extracts beside wheat (Supplementary Fig. S5); gel system not given

## chloroplastic glutamine synthetase GS2 of wheat (natural protein)
[1]
  stoichiometry N: 6

## cytosolic glutamine synthetase GS1 holoenzyme of wheat (39 kDa subunit) (from UniProt Q45NB7 1-356) (natural protein)
[2]
  stoichiometry N: 12

## maize glutamine synthetase (natural protein)
[3]
  stoichiometry N: 10

Reference: publication PMC4623691
